Target: GFP-tagged T759A mutant DIAPH1 (murine pEGFP-mDia T751A) (murine) (UniProt O08808)
Assay: co-IP

Chain of UniProt O08808 (O08808 whole entry T751A): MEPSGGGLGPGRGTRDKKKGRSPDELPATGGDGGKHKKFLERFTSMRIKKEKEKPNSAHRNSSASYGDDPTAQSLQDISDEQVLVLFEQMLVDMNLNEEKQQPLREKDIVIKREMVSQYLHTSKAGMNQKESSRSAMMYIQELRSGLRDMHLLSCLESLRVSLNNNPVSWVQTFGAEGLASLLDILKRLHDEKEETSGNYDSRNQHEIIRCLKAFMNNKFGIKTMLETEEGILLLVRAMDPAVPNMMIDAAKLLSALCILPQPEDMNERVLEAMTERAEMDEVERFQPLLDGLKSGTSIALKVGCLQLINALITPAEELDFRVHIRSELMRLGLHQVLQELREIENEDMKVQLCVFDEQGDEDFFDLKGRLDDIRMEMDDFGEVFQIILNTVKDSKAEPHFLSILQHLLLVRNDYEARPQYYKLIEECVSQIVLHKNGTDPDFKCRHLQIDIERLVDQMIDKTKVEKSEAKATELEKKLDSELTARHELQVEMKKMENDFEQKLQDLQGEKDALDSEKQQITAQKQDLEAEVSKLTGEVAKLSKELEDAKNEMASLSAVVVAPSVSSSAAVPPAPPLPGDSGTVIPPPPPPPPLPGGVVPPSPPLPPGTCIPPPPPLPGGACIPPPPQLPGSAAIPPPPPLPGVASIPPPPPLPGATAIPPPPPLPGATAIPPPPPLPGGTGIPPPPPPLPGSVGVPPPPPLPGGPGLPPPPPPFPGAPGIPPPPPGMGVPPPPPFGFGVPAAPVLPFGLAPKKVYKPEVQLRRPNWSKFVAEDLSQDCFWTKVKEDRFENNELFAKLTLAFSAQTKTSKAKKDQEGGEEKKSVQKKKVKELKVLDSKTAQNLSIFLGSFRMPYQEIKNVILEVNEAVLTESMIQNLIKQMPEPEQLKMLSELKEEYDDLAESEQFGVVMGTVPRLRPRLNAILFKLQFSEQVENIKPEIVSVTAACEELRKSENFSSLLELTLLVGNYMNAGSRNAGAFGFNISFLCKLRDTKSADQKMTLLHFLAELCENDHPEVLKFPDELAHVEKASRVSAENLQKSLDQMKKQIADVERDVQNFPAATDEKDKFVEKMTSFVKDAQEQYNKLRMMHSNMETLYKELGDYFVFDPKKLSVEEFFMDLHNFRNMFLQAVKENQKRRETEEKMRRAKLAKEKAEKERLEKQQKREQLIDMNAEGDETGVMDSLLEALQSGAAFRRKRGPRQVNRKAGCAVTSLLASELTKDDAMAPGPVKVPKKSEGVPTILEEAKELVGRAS

| Substance | percent decrease of the co-precipitate against wild type [%] |
| --- | --- |
| Kinesin heavy chain (from UniProt P33176 1-963) (natural protein) | 65 |
| Actin, β (from UniProt P60709 1-375) (natural protein) | 86 |

Reference: publication PMC3596254
